Reference: article PMC3205248

Target: His6-DIP1-c (Disconnected Interacting Protein 1, longest isoform) (Drosophila melanogaster)
Experiment: AUC

- stoichiometry N: 2
Substance: His6-DIP1-c (Disconnected Interacting Protein 1, longest isoform) (natural protein)
